Assay results: US20170342144A1 (Sanofi, published 2017)

T1: human TGFβ2 (human, UniProt P61812 303-414)
T1 construct: also called TGFβ2 homodimer
T1 sequence: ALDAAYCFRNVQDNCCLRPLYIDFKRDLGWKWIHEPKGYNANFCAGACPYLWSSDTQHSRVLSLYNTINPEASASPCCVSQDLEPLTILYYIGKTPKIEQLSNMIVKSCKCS

T2: human TGFβ3 (human, UniProt P10600 301-412)
T2 sequence: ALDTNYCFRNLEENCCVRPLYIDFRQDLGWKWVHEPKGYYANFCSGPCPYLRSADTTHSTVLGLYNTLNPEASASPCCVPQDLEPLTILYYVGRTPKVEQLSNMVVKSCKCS


Experiments:
Experiment in all cases: Biacore off-rate vs wt GC1008, 50 nM
[1] = target: T1, human TGFβ2
Description: (§1) Plasmids encoding either the GC1008 heavy chain or light chain were used as a template in PCR-based mutagenesis reactions. Mutations to the encoding DNA were made to create 155 single amino acid substitutions of the encoded heavy chain amino acid sequence and one single amino acid substitution of the encoded light chain amino acid sequence. A QuikChange® Lightning Site-Directed Mutagenesis kit (Agilent Technologies, Santa Clara Calif.) was used according to the manufacturer's instructions to create DNA mutations using a set of forward and reverse primers, either designed for a specific amino acid or for all 20 amino acids with a degenerate codon (NNK). After sequencing confirmation, identified mutant DNA was paired with a wild-type light or heavy chain DNA for transfection into an Expi293F™ host cell suspension (Life Techonologies Corp., Grand Island, N.Y.). At 4 days post-transfection, conditioned media (1 mL) was harvested and purified using a 1 mL Protein A PhyTip® column (PhyNexus, Inc., San Jose, Calif.) and a PureSpeed™ 12-channel pipette (Rainin Instrument LLC, Oakland, Calif.). Purified variant antibody samples were analyzed in duplicate on a Biacore® 3000 (GE Healthcare) at 50 nM concentrations, using the 100 RU level TGFβ1, 2, and 3 immobilized surfaces. The off-rate (kd) of the variants was divided by the kd of the wild-type control to obtain the fold change in the kd. […] A heat map was generated to visualize the results. Variants that completely lost affinity for TGFβ were shown in red without numbers.

[2] = target: T3, human TGFβ1 (human, UniProt P01137 279-390)
T3 construct: also called TGFβ1 homodimer
Description: as §1

[3] = target: T2, human TGFβ3
Description: as §1

T3 sequence (P01137 279-390 limits assumed): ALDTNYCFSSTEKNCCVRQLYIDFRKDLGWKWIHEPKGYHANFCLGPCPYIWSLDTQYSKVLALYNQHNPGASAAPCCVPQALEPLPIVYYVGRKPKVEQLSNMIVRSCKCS

kd var/kd wt [1] | kd var/kd wt [2] | kd var/kd wt [3] | Binder
1.5 | 1.4 | 1.1 | D56G (antibody, V domains shown, GC1008 IgG4 variant) VH: QVQLVQSGAEVKKPGSSVKVSCKASGYTFSSNVISWVRQAPGQGLEWMGGVIPIVGIANYAQRFKGRVTITADESTSTTYMELSSLRSEDTAVYYCASTLGLVLDAMDYWGQGTLVTVSS VL: ETVLTQSPGTLSLSPGERATLSCRASQSLGSSYLAWYQQKPGQAPRLLIYGASSRAPGIPDRFSGSGSGTDFTLTISRLEPEDFAVYYCQQYADSPITFGQGTRLEIK
1.3 | 1.1 | 0.7 | D56K (antibody, V domains shown, GC1008 IgG4 variant) VH: QVQLVQSGAEVKKPGSSVKVSCKASGYTFSSNVISWVRQAPGQGLEWMGGVIPIVKIANYAQRFKGRVTITADESTSTTYMELSSLRSEDTAVYYCASTLGLVLDAMDYWGQGTLVTVSS VL: ETVLTQSPGTLSLSPGERATLSCRASQSLGSSYLAWYQQKPGQAPRLLIYGASSRAPGIPDRFSGSGSGTDFTLTISRLEPEDFAVYYCQQYADSPITFGQGTRLEIK
1.3 | 1.1 | 0.7 | D56H (antibody, V domains shown, GC1008 IgG4 variant) VH: QVQLVQSGAEVKKPGSSVKVSCKASGYTFSSNVISWVRQAPGQGLEWMGGVIPIVHIANYAQRFKGRVTITADESTSTTYMELSSLRSEDTAVYYCASTLGLVLDAMDYWGQGTLVTVSS VL: ETVLTQSPGTLSLSPGERATLSCRASQSLGSSYLAWYQQKPGQAPRLLIYGASSRAPGIPDRFSGSGSGTDFTLTISRLEPEDFAVYYCQQYADSPITFGQGTRLEIK
1.5 | 1.6 | 1.4 | D56I (antibody, V domains shown, GC1008 IgG4 variant) VH: QVQLVQSGAEVKKPGSSVKVSCKASGYTFSSNVISWVRQAPGQGLEWMGGVIPIVIIANYAQRFKGRVTITADESTSTTYMELSSLRSEDTAVYYCASTLGLVLDAMDYWGQGTLVTVSS VL: ETVLTQSPGTLSLSPGERATLSCRASQSLGSSYLAWYQQKPGQAPRLLIYGASSRAPGIPDRFSGSGSGTDFTLTISRLEPEDFAVYYCQQYADSPITFGQGTRLEIK

The next lines start with the binder.

Binder | kd var/kd wt [1] | kd var/kd wt [2] | kd var/kd wt [3]
D56C (antibody, V domains shown, GC1008 IgG4 variant) VH: QVQLVQSGAEVKKPGSSVKVSCKASGYTFSSNVISWVRQAPGQGLEWMGGVIPIVCIANYAQRFKGRVTITADESTSTTYMELSSLRSEDTAVYYCASTLGLVLDAMDYWGQGTLVTVSS VL: ETVLTQSPGTLSLSPGERATLSCRASQSLGSSYLAWYQQKPGQAPRLLIYGASSRAPGIPDRFSGSGSGTDFTLTISRLEPEDFAVYYCQQYADSPITFGQGTRLEIK | 1.3 | 1.1 | 0.8
V55W (antibody, V domains shown, GC1008 IgG4 variant) VH: QVQLVQSGAEVKKPGSSVKVSCKASGYTFSSNVISWVRQAPGQGLEWMGGVIPIWDIANYAQRFKGRVTITADESTSTTYMELSSLRSEDTAVYYCASTLGLVLDAMDYWGQGTLVTVSS VL: ETVLTQSPGTLSLSPGERATLSCRASQSLGSSYLAWYQQKPGQAPRLLIYGASSRAPGIPDRFSGSGSGTDFTLTISRLEPEDFAVYYCQQYADSPITFGQGTRLEIK | 1.3 |  | 2.1
I52T (antibody, V domains shown, GC1008 IgG4 variant) VH: QVQLVQSGAEVKKPGSSVKVSCKASGYTFSSNVISWVRQAPGQGLEWMGGVTPIVDIANYAQRFKGRVTITADESTSTTYMELSSLRSEDTAVYYCASTLGLVLDAMDYWGQGTLVTVSS VL: ETVLTQSPGTLSLSPGERATLSCRASQSLGSSYLAWYQQKPGQAPRLLIYGASSRAPGIPDRFSGSGSGTDFTLTISRLEPEDFAVYYCQQYADSPITFGQGTRLEIK | 1.9 |  | 2.1
V55A (antibody, V domains shown, GC1008 IgG4 variant) VH: QVQLVQSGAEVKKPGSSVKVSCKASGYTFSSNVISWVRQAPGQGLEWMGGVIPIADIANYAQRFKGRVTITADESTSTTYMELSSLRSEDTAVYYCASTLGLVLDAMDYWGQGTLVTVSS VL: ETVLTQSPGTLSLSPGERATLSCRASQSLGSSYLAWYQQKPGQAPRLLIYGASSRAPGIPDRFSGSGSGTDFTLTISRLEPEDFAVYYCQQYADSPITFGQGTRLEIK | 1.7 |  | 2
V55L (antibody, V domains shown, GC1008 IgG4 variant) VH: QVQLVQSGAEVKKPGSSVKVSCKASGYTFSSNVISWVRQAPGQGLEWMGGVIPILDIANYAQRFKGRVTITADESTSTTYMELSSLRSEDTAVYYCASTLGLVLDAMDYWGQGTLVTVSS VL: ETVLTQSPGTLSLSPGERATLSCRASQSLGSSYLAWYQQKPGQAPRLLIYGASSRAPGIPDRFSGSGSGTDFTLTISRLEPEDFAVYYCQQYADSPITFGQGTRLEIK | 1.6 |  | 1.8
S30K (antibody, V domains shown, GC1008 IgG4 variant) VH: QVQLVQSGAEVKKPGSSVKVSCKASGYTFKSNVISWVRQAPGQGLEWMGGVIPIVDIANYAQRFKGRVTITADESTSTTYMELSSLRSEDTAVYYCASTLGLVLDAMDYWGQGTLVTVSS VL: ETVLTQSPGTLSLSPGERATLSCRASQSLGSSYLAWYQQKPGQAPRLLIYGASSRAPGIPDRFSGSGSGTDFTLTISRLEPEDFAVYYCQQYADSPITFGQGTRLEIK | 1.5 |  | 1.6
D56E (antibody, V domains shown, GC1008 IgG4 variant) VH: QVQLVQSGAEVKKPGSSVKVSCKASGYTFSSNVISWVRQAPGQGLEWMGGVIPIVEIANYAQRFKGRVTITADESTSTTYMELSSLRSEDTAVYYCASTLGLVLDAMDYWGQGTLVTVSS VL: ETVLTQSPGTLSLSPGERATLSCRASQSLGSSYLAWYQQKPGQAPRLLIYGASSRAPGIPDRFSGSGSGTDFTLTISRLEPEDFAVYYCQQYADSPITFGQGTRLEIK | 1.2 | 1 | 0.9
I54Y (antibody, V domains shown, GC1008 IgG4 variant) VH: QVQLVQSGAEVKKPGSSVKVSCKASGYTFSSNVISWVRQAPGQGLEWMGGVIPYVDIANYAQRFKGRVTITADESTSTTYMELSSLRSEDTAVYYCASTLGLVLDAMDYWGQGTLVTVSS VL: ETVLTQSPGTLSLSPGERATLSCRASQSLGSSYLAWYQQKPGQAPRLLIYGASSRAPGIPDRFSGSGSGTDFTLTISRLEPEDFAVYYCQQYADSPITFGQGTRLEIK | 1.3 |  | 1.5
V55I (antibody, V domains shown, GC1008 IgG4 variant) VH: QVQLVQSGAEVKKPGSSVKVSCKASGYTFSSNVISWVRQAPGQGLEWMGGVIPIIDIANYAQRFKGRVTITADESTSTTYMELSSLRSEDTAVYYCASTLGLVLDAMDYWGQGTLVTVSS VL: ETVLTQSPGTLSLSPGERATLSCRASQSLGSSYLAWYQQKPGQAPRLLIYGASSRAPGIPDRFSGSGSGTDFTLTISRLEPEDFAVYYCQQYADSPITFGQGTRLEIK | 1.7 |  | 1.8
D56F (antibody, V domains shown, GC1008 IgG4 variant) VH: QVQLVQSGAEVKKPGSSVKVSCKASGYTFSSNVISWVRQAPGQGLEWMGGVIPIVFIANYAQRFKGRVTITADESTSTTYMELSSLRSEDTAVYYCASTLGLVLDAMDYWGQGTLVTVSS VL: ETVLTQSPGTLSLSPGERATLSCRASQSLGSSYLAWYQQKPGQAPRLLIYGASSRAPGIPDRFSGSGSGTDFTLTISRLEPEDFAVYYCQQYADSPITFGQGTRLEIK | 1.5 | 2.3 | 1.5
